Key:
human LT-α3-biotin = human LT-α3-biotin (human, UniProt P01374, biotin); experiment: ELISA
[1] = molecular target: T1, human lymphotoxin alpha homo-trimer (LT-α3) (human, UniProt P01374); experiment: SPR
[2] = molecular target: T1, human lymphotoxin alpha homo-trimer …; experiment: ELISA

T1 sequence (P01374 35-205): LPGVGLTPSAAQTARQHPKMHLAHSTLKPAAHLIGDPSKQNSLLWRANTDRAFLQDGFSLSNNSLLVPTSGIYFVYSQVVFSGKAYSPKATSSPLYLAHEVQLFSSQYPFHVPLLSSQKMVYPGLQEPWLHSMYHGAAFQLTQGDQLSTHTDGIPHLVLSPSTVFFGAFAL
Chain of human LT-α3-biotin (P01374 35-205): as above

| Binder | IC50 (human LT-α3-biotin) | Kd [1] | EC50 [2] |
| --- | --- | --- | --- |
| LT-3F12 anti-LT-α monoclonal antibody purified from mouse ascites (antibody, V domains shown) VH: QGQLQQSGAELMKPGASVKISCKATGYTFSSYWIEWVKQRPGHGLEWIGEISPGSGSTNYNEEFKGKATFTADKSSNTAYIQLSSLTSEDSAVYYCADGYHGYWGQGTTLTVSS VL: DIVMSQSPSSLAVSVGEKVTMSCKSSQSLLYSTNQKNFLAWYQQKPGQSPKLLIYWASTRDSGVPDRFTGSGSGTDFTLTISSVKAEDLAVYYCQQYYSYPRTFGGGTKLEIK | 47 nM | 0.3 nM | 0.018 nM |
| LT-3F12 rescued recombinant chimeric antibody (antibody, V domains shown) VH: QGQLQQSGAELMKPGASVKISCKATGYTFSSYWIEWVKQRPGHGLEWIGEISPGSGSTNYNEEFKGKATFTADKSSNTAYIQLSSLTSEDSAVYYCADGYHGYWGQGTTLTVSS VL: DIVMSQSPSSLAVSVGEKVTMSCKSSQSLLYSTNQKNFLAWYQQKPGQSPKLLIYWASTRDSGVPDRFTGSGSGTDFTLTISSVKAEDLAVYYCQQYYSYPRTFGGGTKLEIK |  | 0.3 nM | 0.037 nM |
